Values quoted from earlier work as cited in US20260009081A1, “CLONAL HEMATOPOIESIS AND CYTOKINE TARGETS” (TRUSTEES OF BOSTON UNIVERSITY, priority 2018, published 2026).

Biological target: T1, IL-1β (Homo sapiens, UniProt P01584)
T1 construct: endogenous in cells; host or cells: CANTOS trial patients (endogenous cytokine)

canakinumab: IL-1β neutralizing antibody; interleukin 1 beta monoclonal antibody
side effect of therapy (patients): infection side effect | major adverse cardiovascular events (patients with stable coronary artery disease and elevated C-reactive protein): can reduce major adverse cardiovascular events
